Experimental data: PMC3938055

Columns and labels:
CENP-S-EGFP (human) = CENP-S-EGFP (human) (UniProt Q8N2Z9); test: FRET or BRET; acceptor photobleaching FRET at centromeres in living cells; EGFP donor, mCherry acceptor bleached in a 4-10 µm^2 region; E_FRET against EVAR of an unbleached region, Mann-Whitney rank-sum test
EGFP-CENP-S (human) = EGFP-CENP-S (human) (UniProt Q8N2Z9); test: as above

CENP-T-mCherry (from UniProt Q96BT3 1-561) (natural protein)
E FRET (CENP-S-EGFP (human)): 4.15 | ΔE (E FRET – EVAR) (CENP-S-EGFP (human)): 4.5 | E FRET (EGFP-CENP-S (human)): 3 | ΔE (E FRET – EVAR) (EGFP-CENP-S (human)): 4.5
